The results in this text go back to patent US20200399314A1 (MEDIKINE, published 2020).

Sequences and labels used below:
T1: human IL-2Rα subunit (human, UniProt P01589 22-213, limits assumed)
T1 construct: also called CD25
T1 sequence (looked up): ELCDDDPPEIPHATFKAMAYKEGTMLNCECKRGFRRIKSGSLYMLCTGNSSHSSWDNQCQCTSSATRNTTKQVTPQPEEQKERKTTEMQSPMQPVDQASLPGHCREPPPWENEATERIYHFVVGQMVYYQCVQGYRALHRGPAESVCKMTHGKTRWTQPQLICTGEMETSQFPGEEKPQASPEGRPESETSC

Bridge positions count the residues as written; N and C are the ends. Ends that are not written are not given here.

This assay addresses T1, human IL-2Rα subunit.
As usually defined, the IC50 is the concentration needed to halve the response being measured. Low readings indicate inhibition by little substance, high ones a need for much substance. In turn, QRCQLSWSGGELGCMF (disulfide 3-14 (inferred)) [SEQ ID NO 178] had an IC50 of less than 100 µM.

Take KCRLRQMSRGGWECL [SEQ ID NO 199]: the IC50 is less than 100 µM. Then FVLCGLQGCRGS [SEQ ID NO 19], with less than 100 µM; and NHCTLSKTYPWVCVF (disulfide 3-13 (inferred)) [SEQ ID NO 145], with less than 100 µM; and QSCTLQRLGHLYQCWF [SEQ ID NO 189], with less than 100 µM. With RQFCLVSPGYEDCWFV [SEQ ID NO 135] the figure was less than 100 µM; with PSCRLWNPGFGWECIF [SEQ ID NO 188], less than 100 µM. With RCRLQKAGGNTWECI [SEQ ID NO 201] the figure was less than 100 µM; with GGCSLVWADSWVCIF [SEQ ID NO 148], less than 100 µM. Molecule GCSLMWQDGWWVCI [SEQ ID NO 171] displayed an IC50 of less than 100 µM. As for TTVCDYHPGSRYCINE [SEQ ID NO 138], the IC50 was less than 100 µM. Take GCVLQFSGVWWECV (disulfide 2-13 (inferred)) [SEQ ID NO 174]: the IC50 was less than 100 µM. Then TCTVHRIGLAEWECV (disulfide 2-14 (inferred)) [SEQ ID NO 204], with less than 100 µM; and TRCRLLKLGSLWECFG [SEQ ID NO 195], with less than 100 µM; and FVPWPEYFLQIM [SEQ ID NO 12], with less than 100 µM. Then FIPWEEYFSQLL [SEQ ID NO 13], with less than 100 µM; and FIPWPEYFSQLL [SEQ ID NO 14], with less than 100 µM. Then ASCSLVWQDSWVCIF [SEQ ID NO 164], with less than 100 µM.

As to SRCTLVFDDSWVCVF [SEQ ID NO 153], the IC50 is less than 100 µM.

Regarding LACILSKPGEHWECLF [SEQ ID NO 184], the IC50 was less than 100 µM.

ARCSLHHTGSRYECIF [SEQ ID NO 180] yielded an IC50 of less than 100 µM. With SCTVRWDGDWWVCE [SEQ ID NO 170] the figure was less than 100 µM; with FVPWDEYFLQIL [SEQ ID NO 15], less than 100 µM; with QRCNRSLLDALICQA [SEQ ID NO 146], less than 100 µM. Then TRWCSLHPGVGECVTL [SEQ ID NO 137], with less than 100 µM; and ACWRSWRYPTRTFCS [SEQ ID NO 198], with less than 100 µM. For the molecule SACTPNWTGRWWECVF (disulfide 3-14 (inferred)) [SEQ ID NO 190], the IC50 was less than 100 µM.

Molecule SKCHLIVSGKFHECVF [SEQ ID NO 191] had an IC50 of less than 100 µM. With SRCSLVWAENWVCIF [SEQ ID NO 160] the figure was less than 100 µM. Molecule AGCMLLKPGLYWECIF [SEQ ID NO 179] returned an IC50 of less than 100 µM. For NTCKLFRSGNIWQCIF [SEQ ID NO 187], the IC50 is less than 100 µM. Molecule RRCTLVFLDSWECIF (disulfide 3-13 (inferred)) [SEQ ID NO 161] yielded a half-maximal inhibitory concentration (IC50) of less than 100 µM. Regarding SACQLKWDEGWTCLF [SEQ ID NO 144], the IC50 is less than 100 µM. With RGCSLRFAEAWECIF [SEQ ID NO 163] the figure was less than 100 µM; with YASCTYLPGHRGCTLV [SEQ ID NO 139], less than 100 µM. Then ATCMLRLLGDGWGCVF [SEQ ID NO 181], with less than 100 µM. With TCRLKRSGPNSWECI [SEQ ID NO 203] the figure was less than 100 µM; with VGCSLVWTDRWECIF (disulfide 3-13 (inferred)) [SEQ ID NO 156], less than 100 µM; with SRCSLVWTDTWVCVF [SEQ ID NO 152], less than 100 µM. As for SGCSLQWADGWVCIF (disulfide 3-13 (inferred)) [SEQ ID NO 157], the IC50 was less than 100 µM. Then SRCSLVWADSWVCIF [SEQ ID NO 165], with less than 100 µM; and RGCSLVWSGSWECIF [SEQ ID NO 154], with less than 100 µM.

RGCSLVWAGSWECIF [SEQ ID NO 159] returned an IC50 of less than 100 µM. RGCTLAWEDSWVCIF (disulfide 3-13 (inferred)) [SEQ ID NO 162] gave an IC50 of less than 100 µM. QACQLVWLDSWVCIF [SEQ ID NO 155] returned an IC50 of less than 100 µM. Consider GCTLKWESPNWTCY [SEQ ID NO 169], for which the IC50 is less than 100 µM. Molecule NSCILSNPGLGWQCVF [SEQ ID NO 186] had an IC50 of less than 100 µM.

Consider THCLVQWPGPVVACRS [SEQ ID NO 194], for which the IC50 was less than 100 µM.

Molecule TRMCFDDPGWHSCPVV [SEQ ID NO 136] gave an IC50 of less than 100 µM. Then KGCTLQNPGSGWVCLF [SEQ ID NO 183], with less than 100 µM; and WLPCDDYPGHGYCYSR (disulfide 4-13 (inferred)) [SEQ ID NO 140], with less than 100 µM; and SSCTLFNPGTGWTCVF [SEQ ID NO 192], with less than 100 µM. STCRMGNPGGVWGCYF (disulfide 3-14 (inferred)) [SEQ ID NO 193] gave an IC50 of less than 100 µM. GRCHLVWSDRWECIF [SEQ ID NO 166] had an IC50 of less than 100 µM. With GCTLSWNQGWWHCV [SEQ ID NO 172], the 50% inhibitory concentration (IC50) is less than 100 µM.

On to GCMLTRGKFWWECI [SEQ ID NO 173], for which the IC50 was less than 100 µM. Molecule GPCRLSNPGTGWECIF (disulfide 3-14 (inferred)) [SEQ ID NO 182] came in with an IC50 of less than 100 µM.

For RGCMLRLQPELACVF [SEQ ID NO 147], the IC50 was less than 100 µM. As for FIPWDEYFKQVL [SEQ ID NO 11], the IC50 is less than 100 µM. With NCRVRHLPYPFWSCL [SEQ ID NO 200] the figure was less than 100 µM; with NGCTLSFSGMSWTCVY (disulfide 3-14 (inferred)) [SEQ ID NO 185], less than 100 µM; with ARCSLVWDEAWVCIF [SEQ ID NO 158], less than 100 µM. Then RCTLRFDAQTGWECN [SEQ ID NO 202], with less than 100 µM.
